Laboratory results from patent US20170035877A1.

Key:
[1] = target: 16055 SOSIP.663 trimer, negatively selected (flow-through of the GE136 column) (HIV-1 16055 (subtype C)); assay: negative-stain EM, 2D class averages
[2] = target: JRFL SOSIP.663 trimer, negatively selected (flow-through of the F105 column) (HIV-1 JRFL (subtype B)) (UniProt P20871); assay: negative-stain EM, 2D class averages
[3] = target: 16055 gp120 (HIV-1 16055 (subtype C))
[4] = target: 16055 SOSIP.663 trimer, negatively selected (flow-through of the GE136 column) (HIV-1 16055 (subtype C)); assay: negative-stain EM, stoichiometry from micrographs
[5] = target: JRFL SOSIP.663 trimer, negatively selected (flow-through of the F105 column) (HIV-1 JRFL (subtype B)) (UniProt P20871); assay: negative-stain EM, stoichiometry from micrographs
[6] = target: 16055 SOSIP (HIV-1 16055 (subtype C)); assay: ITC; conditions: Fab

19b Fab
percent of trimers with one Fab bound [1]: 22%
percent of trimers with one Fab bound [2]: 25%

F105
Kd [3]: 0.0302 µM

PGT151 Fab
percent of trimers with one Fab bound [4]: 34%
percent of trimers with three Fabs bound [4]: 0%
percent of trimers with two Fabs bound [4]: 20%
percent of trimers with one Fab bound [5]: 28%
percent of trimers with three Fabs bound [5]: 11%
percent of trimers with two Fabs bound [5]: 36%

VRC01 Fab
Kd [6]: 0.097 µM
